According to article PMC12757481, “The dihydropyridine LA1011 modulates multiple Hsp90—co-chaperone interactions relevant to Alzheimer’s disease” (Cell Stress & Chaperones, 2025):
Several values for one entry are separate records, joined by “and”; a condition that tells them apart may be missing. Equal values may be shown once. Read-outs that look alike come from different tables or passages of the source.

How the values were obtained:
[1] = molecular target: T1, Hsp90-LA1011 (Saccharomyces cerevisiae, UniProt P02829); assay: ITC, co-chaperone binding to Hsp90-LA1011 complex; set-up: species or system yeast
T1 construct: made in house
Procedure: (§1) The heat of interaction was measured on an ITC200 microcalorimeter (Microcal) under the same buffer conditions (20 mM Tris, pH 7.5, containing 5 mM NaCl), except for experiments using PP5, where we omitted EDTA and used 1 μM MnCl2. In experiments using nucleotide, we used 5 mM AMPPNP and 6 mM MgCl2. For experiments using Aha1 with AMPPNP the buffer contained 100 mM NaCl. Similarly, Sgt1 experiments also included 100 mM NaCl in the buffer. […] To assess co-chaperone binding to Hsp90 and Hsp90-LA1011 complex, we generally injected aliquots of co-chaperone at concentrations ranging from 200 to 400 μM into the microcell containing the Hsp90 or Hsp90-LA1011 complex at concentrations ranging from 20 to 30 μM of Hsp90 or Hsp90 in complex with 2 mM LA1011 at 30 °C. Heats of dilution were determined by diluting the injectant into the buffer. Data were fitted using a curve-fitting algorithm (Microcal Origin) either as a one-site binding event or as two independent binding sites as required.

[2] = molecular target: T2, Hsp90 (Saccharomyces cerevisiae, UniProt P02829); assay: Lactate-dehydrogenase and pyruvate-kinase-linked Hsp90 ATPase assay; format: biochemical, yeast; settings: for effect of LA1011 on the co-chaperone directed regulation of Hsp90 ATPase activity: 2 μM Hsp90, 240 μM LA1011, co-chaperone 0.25 to 30 μM, normalized data compared with control lacking LA1011
T2 construct: made in house
Procedure: ATPase assays using 2 μM Hsp90 were conducted as previously described using the lactate-dehydrogenase and pyruvate-kinase-linked assay.[12] Briefly, 240 μM of LA1011 was used in assays as required. Co-chaperones were added to Hsp90 and Hsp90-LA1011 complex at a variety of concentrations ranging from 0.25 to 30 μM. Assays utilizing LA1011 were normalized by recalculating the activity for all data points so that the data points were converted to a percentage of the activity relative to the first data point, which lacked any addition of co-chaperone. The first data point was therefore 100% max Hsp90 activity. All assays were conducted at least in triplicate.
To assess the effect of LA1011 on the mechanistic action of co-chaperones, we used the lactate-dehydrogenase and pyruvate-kinase-linked Hsp90 ATPase assay. We first assessed the effect of each co-chaperone on Hsp90 ATPase activity and then compared its effect on a Hsp90-LA1011 complex.

[3] = molecular target: T2, Hsp90; assay: ITC, co-chaperone binding to Hsp90; set-up: species or system yeast
Procedure: as §1

[4] = ITC 30 °C, Hsp90 in complex with 2 mM LA1011, one-site fit, read-out: Kd
[5] = ITC 30 °C, co-chaperone and Hsp90 without LA1011, one-site fit, read-out: Kd

T2 sequence (P02829 whole entry): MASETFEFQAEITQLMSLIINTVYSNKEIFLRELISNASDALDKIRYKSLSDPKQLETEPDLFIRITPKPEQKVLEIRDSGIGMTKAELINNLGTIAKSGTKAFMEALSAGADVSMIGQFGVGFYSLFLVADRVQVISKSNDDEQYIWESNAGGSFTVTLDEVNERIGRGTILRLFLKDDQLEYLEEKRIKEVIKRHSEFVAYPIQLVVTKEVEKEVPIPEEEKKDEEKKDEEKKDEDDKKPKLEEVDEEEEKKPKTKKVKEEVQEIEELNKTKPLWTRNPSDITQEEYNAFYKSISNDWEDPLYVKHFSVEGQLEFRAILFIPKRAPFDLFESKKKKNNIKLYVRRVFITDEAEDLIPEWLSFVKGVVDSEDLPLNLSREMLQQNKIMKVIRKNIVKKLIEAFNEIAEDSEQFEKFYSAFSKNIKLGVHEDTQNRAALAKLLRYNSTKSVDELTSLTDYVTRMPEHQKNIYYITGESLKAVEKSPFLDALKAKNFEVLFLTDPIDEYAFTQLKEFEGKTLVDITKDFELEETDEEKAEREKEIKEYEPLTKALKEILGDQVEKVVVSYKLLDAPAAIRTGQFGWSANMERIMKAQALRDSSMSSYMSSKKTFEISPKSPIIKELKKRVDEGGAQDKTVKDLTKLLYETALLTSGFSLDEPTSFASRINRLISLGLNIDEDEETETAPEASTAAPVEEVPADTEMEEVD
T1 sequence (P02829 whole entry): as above

| Molecule | Kd [1, 4] | effect of LA1011 on the co-chaperone directed regulation of Hsp90 ATPase activity [2] | Kd [3, 5] | Kd ([1]; ITC, Hsp90 with 2 mM LA1011, two-site fit, value listed first in Table 2 and figures, read-out: Kd (two-site fit, first value listed)) | Kd ([1]; ITC, Hsp90 with 2 mM LA1011, two-site fit, value listed second in Table 2 and figures, read-out: Kd (two-site fit, second value listed)) | Kd ([3]; ITC, Hsp90 without LA1011, two-site fit, value listed first in Table 2 and figures, read-out: Kd (two-site fit, first value listed)) | Kd ([3]; ITC, Hsp90 without LA1011, two-site fit, value listed second in Table 2 and figures, read-out: Kd (two-site fit, second value listed)) | effect on Hsp90 ATPase activity ([2]; 2 μM Hsp90) |
| --- | --- | --- | --- | --- | --- | --- | --- | --- |
| Sgt1: yeast Sgt1 (amino acid residues 1-280), Hsp90 co-chaperone (protein, UniProt Q08446 1-280, looked up, fragment) MPVEKDLKTAYKALYDEKEPLKALHLYDEILKGSPTNLTALIFKAACLEKLYFGFSDWHSDATMENAKELLDKALMTAEGRGDRSKIGLVNFRYFVHFFNIKDYELAQSYFKKAKNLGYVDDTLPLWEDRLETKLNKKNKKQKDSTNKHTIKPVESIENRGDNNSSHSPISPLKIETAPQESPKFKIDWYQSSTSVTISLFTVNLPESKEQVNIYISPNDRRTLSISYQVPKSGSEFQYNAKLSHEVDPKAVSLKIFPKKLEITLSKIDSTQWKKLEEDI | 13600 nM | unaffected by the presence of LA1011 | 16200 nM | – | – | – | – | – |
| TPR domain of PP5: PP5-TPR domain (amino acid residues 1-177) (protein, UniProt P53041 1-177, looked up, fragment, TPR domain) MAMAEGERTECAEPPRDEPPADGALKRAEELKTQANDYFKAKDYENAIKFYSQAIELNPSNAIYYGNRSLAYLRTECYGYALGDATRAIELDKKYIKGYYRRAASNMALGKFRAALRDYETVVKVKPHDKDAKMKYQECNKIVKQKAFERAIAGDEHKRSVVDSLDIESMTIEDEYS | – | small but significant effect | – | – | – | – | – | – |
| FKBP52: Hsp90 co-chaperone, TPR domain-containing protein (protein, UniProt Q02790 1-459, looked up) Peptidyl-prolyl cis-trans …: MTAEEMKATESGAQSAPLPMEGVDISPKQDEGVLKVIKREGTGTEMPMIGDRVFVHYTGWLLDGTKFDSSLDRKDKFSFDLGKGEVIKAWDIAIATMKVGEVCHITCKPEYAYGSAGSPPKIPPNATLVFEVELFEFKGEDLTEEEDGGIIRRIQTRGEGYAKPNEGAIVEVALEGYYKDKLFDQRELRFEIGEGENLDLPYGLERAIQRMEKGEHSIVYLKPSYAFGSVGKEKFQIPPNAELKYELHLKSFEKAKESWEMNSEEKLEQSTIVKERGTVYFKEGKYKQALLQYKKIVSWLEYESSFSNEEAQKAQALRLASHLNLAMCHLKLQAFSAAIESCNKALELDSNNEKGLFRRGEAHLAVNDFELARADFQKVLQLYPNNKAAKTQLAVCQQRIRRQLAREKKLYANMFERLAEEENKAKAEASSGDHPTDTEMKEEQKSNTAGSQSQVETEA | – | – | – | 2800 nM | ~200 nM and 200 nM | ~620 nM | ~620 nM and 620 nM | – |
| CHIP: mouse CHIP, Hsp90-dependent E3 ubiquitin ligase co-chaperone, dimeric (protein, UniProt Q9WUD1 1-304, looked up) E3 ubiquitin-protein ligase …: MKGKEEKEGGARLGTGGGGSPDKSPSAQELKEQGNRLFVGRKYPEAAACYGRAITRNPLVAVYYTNRALCYLKMQQPEQALADCRRALELDGQSVKAHFFLGQCQLEMESYDEAIANLQRAYSLAKEQRLNFGDDIPSALRIAKKKRWNSIEERRIHQESELHSYLTRLIAAERERELEECQRNHEGHEDDGHIRAQQACIEAKHDKYMADMDELFSQVDEKRKKRDIPDYLCGKISFELMREPCITPSGITYDRKDIEEHLQRVGHFDPVTRSPLTQEQLIPNLAMKEVIDAFISENGWVEDY | 1440 nM | LA1011 affects CHIP’s ability to inhibit Hsp90 ATPase activity | 80 nM | – | – | – | – | inhibitor of the ATPase activity of Hsp90 |
